Data as given in publication PMC10397247.

Tests used:
[1] = biological target: T1, APC2405-AA; assay: two-hybrid library CCmax; settings: mean of both orientations;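 note: natural log of median RNA to DNA barcode read ratio; higher means stronger binding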
T1 chain: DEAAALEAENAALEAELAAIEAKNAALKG

[2] = biological target: T2, APC2237-AA; assay: two-hybrid library CCmax; settings: mean of both orientations;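 note: natural log of median RNA to DNA barcode read ratio; higher means stronger binding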
T2 chain: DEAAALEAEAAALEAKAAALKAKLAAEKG

[3] = biological target: T3, APC232-AA; assay: two-hybrid library CCmax; settings: mean of both orientations;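 note: natural log of median RNA to DNA barcode read ratio; higher means stronger binding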
T3 chain: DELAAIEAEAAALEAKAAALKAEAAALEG

[4] = biological target: T4, 4H3330-AA; assay: two-hybrid library CCmax; settings: mean of both orientations;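 note: natural log of median RNA to DNA barcode read ratio; higher means stronger binding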
T4 chain: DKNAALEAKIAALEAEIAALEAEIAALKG

[5] = biological target: T5, APC8910-AA; assay: two-hybrid library CCmax; settings: mean of both orientations;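 note: natural log of median RNA to DNA barcode read ratio; higher means stronger binding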
T5 chain: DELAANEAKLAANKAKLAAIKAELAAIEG

[6] = biological target: T6, APC9319-AA; assay: two-hybrid library CCmax; settings: mean of both orientations;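 note: natural log of median RNA to DNA barcode read ratio; higher means stronger binding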
T6 chain: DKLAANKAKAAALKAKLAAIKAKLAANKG

[7] = biological target: T7, APC4264-AA; assay: two-hybrid library CCmax; settings: mean of both orientations
T7 chain: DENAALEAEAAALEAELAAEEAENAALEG

[8] = biological target: T8, APC8191-AA; assay: two-hybrid library CCmax; settings: mean of both orientations
T8 chain: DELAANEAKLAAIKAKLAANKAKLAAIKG

[9] = biological target: T9, 4H733-AA; assay: two-hybrid library CCmax; settings: mean of both orientations
T9 chain: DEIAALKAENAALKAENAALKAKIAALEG

[10] = biological target: T10, 4H716-AA; assay: two-hybrid library CCmax; settings: mean of both orientations
T10 chain: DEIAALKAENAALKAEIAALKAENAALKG

[11] = biological target: T11, APC4011-AA; assay: two-hybrid library CCmax; settings: mean of both orientations
T11 chain: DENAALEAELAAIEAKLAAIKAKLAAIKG

[12] = biological target: T12, 4H2458-AA; assay: two-hybrid library CCmax; settings: mean of both orientations
T12 chain: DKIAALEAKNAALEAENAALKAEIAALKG

[13] = biological target: T13, APC1434-AA; assay: two-hybrid library CCmax; settings: mean of both orientations
T13 chain: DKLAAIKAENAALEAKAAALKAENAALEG

[14] = biological target: T14, 4H2290-AA; assay: two-hybrid library CCmax
T14 chain: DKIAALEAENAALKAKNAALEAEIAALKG

[15] = biological target: T15, APC1015-AA; assay: two-hybrid library CCmax; settings: mean of both orientations
T15 chain: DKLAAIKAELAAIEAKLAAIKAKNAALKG

[16] = biological target: T16, APC3645-AA; assay: two-hybrid library CCmax; settings: mean of both orientations
T16 chain: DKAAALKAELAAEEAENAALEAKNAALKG

[17] = biological target: T17, 4H807-AA; assay: two-hybrid library CCmax; settings: mean of both orientations
T17 chain: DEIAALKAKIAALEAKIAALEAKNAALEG

[18] = biological target: T18, APC4436-AA; assay: two-hybrid library CCmax; settings: mean of both orientations
T18 chain: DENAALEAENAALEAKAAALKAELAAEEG

[19] = biological target: T19, APC9096-AA; assay: two-hybrid library CCmax; settings: mean of both orientations
T19 chain: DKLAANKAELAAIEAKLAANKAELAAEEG

[20] = biological target: T20, APC7099-AA; assay: two-hybrid library CCmax; settings: mean of both orientations
T20 chain: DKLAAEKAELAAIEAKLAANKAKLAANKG

[21] = biological target: T21, APC6108-AA; assay: two-hybrid library CCmax; settings: mean of both orientations
T21 chain: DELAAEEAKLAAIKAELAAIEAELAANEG

[22] = biological target: T22, APC5383-AA; assay: two-hybrid library CCmax; settings: mean of both orientations
T22 chain: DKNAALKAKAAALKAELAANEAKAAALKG

[23] = biological target: T23, 4H2447-AA; assay: two-hybrid library CCmax; settings: mean of both orientations
T23 chain: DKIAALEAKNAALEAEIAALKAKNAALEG

[24] = biological target: T24, O8; assay: two-hybrid library CCNG1
T24 chain: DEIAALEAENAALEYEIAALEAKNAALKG

[25] = biological target: T25, O3; assay: two-hybrid library CCNG1
T25 chain: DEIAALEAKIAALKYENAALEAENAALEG

[26] = biological target: T26, O14; assay: two-hybrid library CCNG1
T26 chain: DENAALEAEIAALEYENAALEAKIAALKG

[27] = biological target: T27, O13; assay: two-hybrid library CCNG1
T27 chain: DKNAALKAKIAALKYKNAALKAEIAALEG

[28] = biological target: T28, O15; assay: two-hybrid library CCNG1
T28 chain: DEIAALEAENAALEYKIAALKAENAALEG

[29] = biological target: T29, O5; assay: two-hybrid library CCNG1
T29 chain: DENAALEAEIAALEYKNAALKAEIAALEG

[30] = biological target: T30, P3A-bS; assay: two-hybrid library CCNG1
T30 chain: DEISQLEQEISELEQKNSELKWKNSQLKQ

[31] = biological target: T31, O12; assay: two-hybrid library CCNG1
T31 chain: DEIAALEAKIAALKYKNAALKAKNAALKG

[32] = biological target: T32, O11; assay: two-hybrid library CCNG1
T32 chain: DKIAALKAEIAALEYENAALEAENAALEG

[33] = biological target: T33, O9; assay: two-hybrid library CCNG1
T33 chain: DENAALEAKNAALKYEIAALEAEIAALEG

[34] = biological target: T34, O7; assay: two-hybrid library CCNG1
T34 chain: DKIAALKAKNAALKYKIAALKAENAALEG

[35] = biological target: T35, O4; assay: two-hybrid library CCNG1
T35 chain: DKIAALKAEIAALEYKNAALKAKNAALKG

[36] = biological target: T36, O16; assay: two-hybrid library CCNG1
T36 chain: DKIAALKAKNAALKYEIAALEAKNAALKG

[37] = biological target: T37, O6; assay: two-hybrid library CCNG1
T37 chain: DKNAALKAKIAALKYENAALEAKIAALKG

[38] = biological target: T38, O2; assay: two-hybrid library CCNG1
T38 chain: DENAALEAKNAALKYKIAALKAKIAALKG

Binder: DKIAALEAENAALKAKNAALEAEIAALKG [4H2290-AA]
- interaction score [1]: -1.42
- interaction score [2]: -1.58
- interaction score [3]: -1.33
- interaction score [4]: -1.24
- interaction score [5]: -1.59
- interaction score [6]: -1.68
- interaction score [7]: -1.33
- interaction score [8]: -1.64
- interaction score [9]: -1.79
- interaction score [10]: -1.57
- interaction score [11]: -1.59
- interaction score [12]: -1.34
- interaction score [13]: -1.4
- interaction score [14]: 2
- interaction score [15]: -1.41
- interaction score [16]: -1.44
- interaction score [17]: -1.62
- interaction score [18]: -1.53
- interaction score [19]: -1.24
- interaction score [20]: -1.57
- interaction score [21]: -1.54
- interaction score [22]: -1.86
- interaction score [23]: -1.32

Binder: DKIAALKAEIAALEYENAALEAENAALEG [O11]
- interaction score [24]: -2.51
- interaction score [25]: -1.74
- interaction score [26]: -2.48
- interaction score [27]: -1.9
- interaction score [28]: -2.22
- interaction score [29]: -2.06
- interaction score [30]: 0.868
- interaction score [31]: 2
- interaction score [32]: -2.47
- interaction score [33]: -2.14
- interaction score [34]: -1.85
- interaction score [35]: 1.77
- interaction score [36]: -2.6
- interaction score [37]: -2.37
- interaction score [38]: -2.18
